Measured values taken from publication PMC12393501, “Recruitment of Mre11 to recombination sites during meiosis” (Research Square, 2025).

B1: HisSUMO-tagged Mer2 [S. cerevisiae] / MBP-tagged Mre11-C49 peptide [S. cerevisiae] (parent)
chain 1: SYGLLNGRKTKTKTRPAASTKTASRRGKGRASRTPKTDILGSLLAKKRK
chain 2: MVARGRTDEISTDVSEANSEHSLMITETSSPFRSIFSHSGKVANAGALEESDKQILEWAGKLELESMELRENSDKLIKVLNENSKTLCKSLNKFNQLLEQDAATNGNVKTLIKDLASQIENQLDKVSTAMLSKGDEKKTKSDSSYRQVLVEEISRYNSKITRHVTNKQHETEKSMRCTQEMLFNVGSQLEDVHKVLLSLSKDMHSLQTRQTALEMAFREKADHAYDRPDVSLNGTTLLHDMDEAHDKQRKKSVPPPRMMVTRSMKRRRSSSPTLSTSQNHNSEDNDDASHRLKRAARTIIPWEELRPDTLESEL

Variants of: B1
Assay: co-expression Ni-NTA pulldown, anti-MBP immunoblot quantification
Settings: with MBP-tagged Mre11-C49 peptide [S. cerevisiae]; co-expressed in E. coli; at least seven independent samples; parent: 1; read off a plot

| ratio to parent | Variant |
| --- | --- |
| 0.27 | chain 2 MVARGRTDEISTDVSEANSEHSLMITETSSPFRSIFSHSGKVANAGALEASDKAILAWAGALELESMELRENSDKLIKVLNENSKTLCKSLNKFNQLLEQDAATNGNVKTLIKDLASQIENQLDKVSTAMLSKGDEKKTKSDSSYRQVLVEEISRYNSKITRHVTNKQHETEKSMRCTQEMLFNVGSQLEDVHKVLLSLSKDMHSLQTRQTALEMAFREKADHAYDRPDVSLNGTTLLHDMDEAHDKQRKKSVPPPRMMVTRSMKRRRSSSPTLSTSQNHNSEDNDDASHRLKRAARTIIPWEELRPDTLESEL [chain 2 E50A Q54A E57A K61A] |
